Experimental data published in US20240287178A1 (YALE UNIVERSITY, published 2024).
Numbering of substitutions follows the chain as printed. One block for each binder: values may come before it.

Legend:
[1] = target: T1, Rat UNC5B (rat, UniProt O08722); assay: Biacore
T1 construct: a recombinant rat Unc5B-ECD Fc fusion protein (R&D systems) only for the phage selection; Kept apart from m11, which is the GFP fusion expressed in PAECs; also called rat Unc5B (Biacore analysis)

[2] = target: T2, human Unc5B (human, UniProt Q8IZJ1 27-945); assay: Biacore
T2 construct: whole, on cells; also called Unc5B (HUVEC)

[3] = target: T3, Unc5B (analyte or ligand of the Biacore analysis; species and construct not stated); assay: Biacore (SPR); format not stated
T3 construct: The phage selection used a recombinant rat Unc5B-ECD Fc fusion (R&D Systems)

[4] = target: T4, rat Unc5B coupled to GFP, in transfected porcine aortic endothelial cells (PAECs) (rat, UniProt O08722 27-945); assay: immunoprecipitation from PAECs transfected with rat Unc5B-GFP, 1 h after antibody treatment
T4 construct: whole, on cells; also called rat Unc5B-GFP; not shown: GFP
From the text: Light (LC) and Heavy (HC) chains were sequenced for each antibody (FIGS. 1A-1D and 2A-2D).

[5] = target: T5, mouse Unc5B (mouse, UniProt Q8K1S3 27-945); assay: immunoprecipitation from Bend.3 cells after antibody treatment, western blot for Unc5B
T5 construct: whole, on cells; Endogenous receptor, on cells or in brain lysates; also called Unc5B (Bend.3 cells, mouse brain)

[6] = target: T5, mouse Unc5B; assay: co-immunoprecipitation with the anti-Unc5B antibodies from Bend.3 cells, western blot for Claudin5

Kd [1]: 0.712 nM
koff [1]: 0.00104 s⁻¹
kon [1]: 1.46e+06 M⁻¹ s⁻¹
Kd [2]: 0.692 nM
koff [2]: 0.000993 s⁻¹
kon [2]: 1.44e+06 M⁻¹ s⁻¹
Kd [3]: 0.7 nM
B1: antibody 1097 (antibody, V domains shown)
VH: EVQLVESGGGLVQPGGSLRLSCAASGFNLYYYSMHWVRQAPGKGLEWVASIYSYSSYTSYADSVKGRFTISADTSKNTAYLQMNSLRAEDTAVYYCARSYAMDYWGQGTLVTVSS
VL: DIQMTQSPSSLSASVGDRVTITCRASQSVSSAVAWYQQKPGKAPKLLIYSASSLYSGVPSRFSGSRSGTDFTLTISSLQPEDFATYYCQQSYGPFTFGQGTKVEIKR

binding result [4]: binds
B2: antibody 1101 (antibody, V domains shown)
VH: EVQLVESGGGLVQPGGSLRLSCAASGFNIYYSSMHWVRQAPGKGLEWVAYISSSYGYTYYADSVKGRFTISADTSKNTAYLQMNSLRAEDTAVYYCARGYYAGYFGIDYWGQGTLVTVSS
VL: B1 VL with S91A, Y92G, G93W, F95I

Kd [1]: 1.34 nM
koff [1]: 0.000501 s⁻¹
kon [1]: 375000 M⁻¹ s⁻¹
Kd [2]: 1.29 nM
koff [2]: 0.000482 s⁻¹
kon [2]: 375000 M⁻¹ s⁻¹
Kd [3]: 1.3 nM
B3: anti-Unc5B antibody 1103 (antibody, V domains shown)
VH: B1 VH with L29I, Y30S, M34I, Y54S, S56G, S99G, A101G, M102L
VL: DIQMTQSPSSLSASVGDRVTITCRASQSVSSAVAWYQQKPGKAPKLLIYSASSLYSGVPSRFSGSRSGTDFTLTISSLQPEDFATYYCQQHYSYPITFGQGTKVEIKR

binding result [4]: binds
binding result [5]: binds
B4: antibody 1095 (antibody, human IgG2, kappa, V domains shown)
VH: EVQLVESGGGLVQPGGSLRLSCAASGFNISYSSIHWVRQAPGKGLEWVAYIYPYYGYTYYADSVKGRFTISADTSKNTAYLQMNSLRAEDTAVYYCARGYGIDYWGQGTLVTVSS
VL: B1 VL with S91H, G93S, P94L

binding result [4]: binds
binding result [5]: binds
B5: antibody 1100 (antibody, V domains shown)
VH: B1 VH with Y32S, M34I, S99G
VL: B1 VL with S91H, P94L, F95I

binding result [4]: binds
binding result [5]: binds
B6: antibody 1098 (antibody, V domains shown)
VH: B1 VH with L29I, Y32S, S33Y, S99H
VL: B1 VL with G93S

binding result [4]: binds
B7: antibody 1102 (antibody, V domains shown)
VH: B1 VH with L29I, Y32S, Y100F
VL: B1 VL with S91A, G93S

binding result [4]: binds
B8: antibody 1099 (antibody, V domains shown)
VH: B1 VH with M34I, S53P, S99G, M102F, D103N
VL: B1 VL with S91H, G93A, P94L

binding result [4]: binds
binding result [5]: binds
B9: antibody 1096 (antibody, V domains shown)
VH: B1 VH with Y32S, M34I
VL: B1 VL with S91G, Y92F, G93A

binding result [6]: binds
B10: mouse Claudin5 (other, UniProt O54942 1-218, looked up)
chain: MGSAALEILGLVLCLVGWVGLILACGLPMWQVTAFLDHNIVTAQTTWKGLWMSCVVQSTGHMQCKVYESVLALSAEVQAARALTVGAVLLALVALFVTLTGAQCTTCVAPGPVKARVALTGGALYAVCGLLALVPLCWFANIVVREFYDPTVPVSQKYELGAALYIGWAASALLMCGGGLVCCGAWVCTGRPEFSFPVKYSAPRRPTANGDYDKKNYV
